{"source": "IntAct's records for PubMed 22265419", "parents": {"B1": {"name": "WASH complex subunit homolog 3 (Caenorhabditis elegans), O01901 (parent)", "chain": "MNASSRTKPAIDLNKVPPIDHHRTAVTFNCLIMKMTEMLNNFGNKMEDILEKAEQSLDTADRKLRLMESKLAGMSLEDKSTTATPSSAPEIDEIHESNPSSSQIVEETVEEKPEEHTTTVLIKDDPAYSKYFKMLKLGVLEAGVIQKMKSEGVDPSILKRGDEPSRPQAQTSRNYESSGESTASFSDSD", "partner": "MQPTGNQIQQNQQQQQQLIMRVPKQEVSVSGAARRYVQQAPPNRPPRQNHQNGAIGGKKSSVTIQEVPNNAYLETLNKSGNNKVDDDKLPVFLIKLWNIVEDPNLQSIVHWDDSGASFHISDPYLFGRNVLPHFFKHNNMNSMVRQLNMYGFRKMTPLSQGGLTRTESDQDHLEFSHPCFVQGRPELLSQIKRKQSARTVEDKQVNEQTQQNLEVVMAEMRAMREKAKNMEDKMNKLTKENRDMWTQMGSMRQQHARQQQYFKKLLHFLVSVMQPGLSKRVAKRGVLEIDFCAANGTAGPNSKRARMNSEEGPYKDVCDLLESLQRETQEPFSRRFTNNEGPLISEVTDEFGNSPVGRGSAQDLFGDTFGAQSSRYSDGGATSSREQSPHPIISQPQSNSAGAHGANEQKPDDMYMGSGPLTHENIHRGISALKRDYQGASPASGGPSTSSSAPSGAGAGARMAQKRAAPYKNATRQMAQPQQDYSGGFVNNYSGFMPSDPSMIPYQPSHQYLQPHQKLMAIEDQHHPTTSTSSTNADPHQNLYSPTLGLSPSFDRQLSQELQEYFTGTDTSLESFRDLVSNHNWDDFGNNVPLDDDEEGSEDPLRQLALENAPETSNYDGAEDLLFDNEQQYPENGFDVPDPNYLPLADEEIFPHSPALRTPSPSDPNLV"}}, "data": [{"variants_of": "B1", "settings": "with hsf1_caeel hsf-1, G5EFT5", "values": [{"variant": "T182A", "effect of a mutation on the interaction": "increasing interaction"}]}]}
